Laboratory results from the nanobody polyreactivity screen of Harvey et al. (2022).

Experiment: yeast display, Sf9 membrane polyspecificity reagent, FACS + sequencing; frameworks hold sequencing errors
Summary of the method: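 In a synthetic yeast display library (Saccharomyces cerevisiae BJ5465), nanobody expression was induced with galactose for 36–48 hours. FACS gates were set low and high (top ~1%) using anti-HA fluorescence for expression and streptavidin fluorescence for binding of the Sf9 membrane reagent. Each polyreactivity label is drawn from the gate of origin.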

Sequence | polyreactivity (PSR sort gate)
QVQLVESGGGLVQAGATIRLSCAASVRTFESNALGWYRQEPGKERELVAGITSGGITNYADSVKGRFTISRDNAKNNVYLQMNSLKPEDTAVYYCEFYYWGQGTQVTVSS | low polyreactivity
QVQLVESGGGLVQAGGSLRLSCAASGSTFYLYAMGWYRQAPGKEREFVAAISWSGGRTYYADSVKGRFTISRDNAKNTVYLQMNSLKPEDTAVYYCAARRRYTWQYTRYDMGYWGQGTQVTVSS | low polyreactivity
QVQLVESGGGLVQAGGSLRLSCAASGFTFAWYAMGWYRQAPGKERELVAAINWSGGRTYYADSVKGRFTISRDNAKNTVYLQMNSLKPEDTAVYYCAAPHLVKRSEFDYWGQGTQVTVSS | high polyreactivity
QVQLVESGGGLVQAGGSLRLSCAASGRTFSGYAMGWYRQAPGKERELVAAIRLSGGSTYYADSVKGRFTISRDNAKNTVYLQMNSLKPEVTAVYYCARYHGFGYDYWGQGTQGTVSS | low polyreactivity
QVQLVESGGGLVQAGGSLRLSCAASGFTFFYYVMGWYRQAPGKERELVAAISQHGGSTYYADSVKGRFTISRDNAKNTVYLQMNSLKPEDTAVYYCAASPVVNRRGTYGYWGQGTQVTVSS | high polyreactivity
QVQLVESGGGLVQAGGRLLLSCAASGFTFPRYVMGWYRQAPGKEREFVAAITFSGGSTYYADSVKGRFTISRDNAKNSVYLQMNSLKPEDTAVYYCAAGASLWRLGLKMGYWGQGTQVTVSS | low polyreactivity
QVQLVESGGGLVQAGGSLRLSCAASGSTFSGYAMGWYRHAPGKERELVAAISRRGTSTYYADSVKGRFTISRDNAKNTVYLQMNSLKPEDTAVYYCAARPSGYVIGGYGYWGQGTQVTVSS | high polyreactivity
QVQLVESGGGLVQAGGSLRLSCAASGYTFTQNAMGWYRQAPGQERELVASLTSGGSTDYADSVKGRFTISRDNAKNTVYLQMNSVKPEDTAVYYCAAGTATDVASIGATKDYDYWGQVTQVTVSS | low polyreactivity
QVQLVESGGGLVQAGGSLRLSCAASGIIFWWYDMGWYRQAPGTERELVAAISTGSRTNYADSVKGRFTISRDNAKNTVYLQMNSLKPEDTAVYYCAAEWVGFSGYYGSGYEMDYWGQGTQVTVSS | low polyreactivity
QVQLVESGGGLVQAGGSLRLSCAASGRTFYSNAMGWYRQAPGKERELVAAIRQSGGSTYYADSVKGRFTISRDNEKNSVYLQMNSLTPEDTAVYYCATGRHDSYKGSLYYYWGQGTQVTVSS | high polyreactivity
QVQLVESGGGLVQAGGSLRLSCAASGRIFYYYAMGWYRQAPGKERELVAAISASGASTYYADSVKGRFTISRDNAKNTVYLQMNSLKPEDTAVYYCAAEEFYYYSADWYDYWGQGTQVTVSS | high polyreactivity
QVQLVESGGGLVQAGGSLRLSCAASGSIFAAYAMGWYRQAPGKERELVAAISDRGGSTYYADSVKGRFTISRDNAKNTVYLQMNSLKPEDTAVYYCATSVYDVRGGPFYYWGQGTQVTVSS | high polyreactivity
QVQLEETGGGLLQAGGSLRLSSAASGRTFVNYAMGWYRQAPGKEREFVAAIDRRSGSTYYADSVKGRFTISRDNAKNTVYLQMTSLKPEDTAVDYCAASPYIYDSWGQGTQVTVSS | low polyreactivity
QVQLVESGGGLVQAGGSLRLSCAASGRTYYHYTMGWYRQAPGKERDLVAAITSGGSTYYADSVKGRFTMSRDNAKITVYVQMNSLKPEDTAVYYCARVRPLYHYSRYDYWGQGTQVTVSS | high polyreactivity
QVQLVETGGGLVQAGGSLRLSCAASGRTFLYYAMGWYRPEPGKERELDAAIRRGSSTYYADSVKGRFTISRDKAKNTVYLQMNSLKPEDTAVYYCAARGRYRIGQGRYGKRYDYWGQGTQVTVSS | high polyreactivity
QVQLVESGGGLVQAGGSLRLSCAASGLTFEVYAMGWYRQARGKERELVAAISSGGGATYYADSVKGRFTISRDNAKNTVYLQMNSLKPEDTAVYYCAAVDPYERYVYWGQGTQVTVSS | low polyreactivity
QVQLVESGGGLVQAGGSLRLSCAASGSIFNKYAMGWYRQAPGKERELVAAISVSGTRTYYADTVKGRFTISRDNAKNTVYLQMNSLKPEDTAVYYCATKFFRTAYESWGQGTQVTVSS | high polyreactivity
QVQLVESGGGLVQAGGSLRLSCAASGRTLWTNAMGWYRQAPGKEREFVAPITWRGGSTYYADSVKGRFTISRDNAKNTVNLQMNSLKPEDTAVYYCATLIPRKGSRYYHRGYWGQGSQVTVSS | high polyreactivity
QVQLVESGGGLVQAGGSLRLRCAASGGIFGRYAMGWYRQAPGKERELVAAISKRGGSTYYADSVKGRFTISRDNAKNTVYLLMNSLKPEDTAVYYCNASQSVELGYDYLGQGTQVTVSS | high polyreactivity
QVQLVESGGGLVQAGGSLRLSCAASGRIFRYNAMGWYRQAPGKERELVASITSGGSTKYADSVKGRFTISRDNAKNTVYLQMNSLKPEDTAVYYCAAQRATPWPKNDYWGQGTQVTVSS | high polyreactivity
QVQLVESGGGLVQAGGSLRLSCAASGSTFILNAMGWYRQAPGKERELVATISSSDTSTYYADSVKGRFTISRDNAKNTVYLLMNSLKPDDTAVYFCNADYYTTSYLQRVYHYGVEYDYWGQGTQVTLSS | low polyreactivity
QVQLVESGGGLVQAGGSLRLSCAASGSIFYRNRMGWYRQAPGKERELVAAIRYSGDNTYYADSVKGRFTISRDNAKNTVYLQMNSLKPEDTAVYYCAADFPDYEYWGQGTQVTVSS | high polyreactivity

Sequence | polyreactivity (PSR sort gate)
QVQLVESGGGLVQAGGSLRLSCAASGFIFRSNAMGWYRQAPGKERELVAAISGRGCSTYYADSVKGRFTISRDNAKNTVYLQMNSLKPVDTAVYYCAKSTVWVLYGYWGQGTQVTVSS | high polyreactivity
QVQLVESWGGLVQAGGSLRLSCAASGRIFFVNAMGWYRQAPGKERELVAAITSGGSTSYADSVKGRFTISRDNAKNTVFLQLNSLKAEDTAVYYCAAVFYRRFDYWGQGTQVTVSS | low polyreactivity
QVQLVESGGGLVQAGGRLRISCAASGSTFKANAMGWYRQSPGKERELVASIRFSAGSTYYADSVKGRFTISRDTAKNTVYLEMNRLKPEDTAVYYCAAGRHVLKRRYDYWGQGTQVTVSS | low polyreactivity
QVQLVESGGGLVQAGGSLSLSCAASGRTFLRYAMGWYRQAPGKERELVAAISWSGGRTYYADSVKGRFTISRDNAKNSVYLQMNSLKAEDTAVYYCNNVVLYGALYYYCGQGTQVTVSS | high polyreactivity
QVQLVESGGGLVQAGGSLGLSCAAYGSIFVGNAMGWYRQAPGNERELVAAICRSGGITYYADSVKGRFTISRDNAKNTVYLQMNSLKPEDTAVYYCAARHRYYYQYRSDYWGQGTQVTVSS | high polyreactivity
QVQLVESGGGLVQAGGSLRLSCTASGTIVPVYAMGWYRQAPGKERELVADITYTTGSTYYAVSVKGRFTISRENAKNSVYLQMNSLKPEDTAVYYCAKDFGFQSDSWGQGTQVTVSS | low polyreactivity
QVQRVESGGGLVQAGGSLRLSCAASGSIFTGNAMGWYRQAPGKEREFVAAIRRSGA | low polyreactivity
QVQLVESGGGLVQAGGSLRLSCAASGRTFDYYVMGWYRQAPGKERELVAAITSGGSTYYADSVKGRFTISRDNAKNTVYLQMNSMKPEDTAVYYCNNVRGAFYSHLFDYWGQGTQVTVSS | high polyreactivity
QVQLVESGGGLVQAGGSLRLSCAPSGRTFSRNAMGWYRQAPGKERELVAAISQRGVSTYYADSVKGSFTISRDNAQNSVYLQMNSLKPEDSAVYYCNTRGTYRYDYWGQGTQGTVSS | low polyreactivity
QVQLVESGGGLVQAGGSLRLSCAASGSIFRVYGMGWYRQAPGKERELVAAITWSGGSTYYADSVKGRFTISRDNAKNTVYLQMNSLKPEDTAVYYCAARHKYAFWTAFGNYWGQGTQVTVSS | high polyreactivity
QVQLVESGGGLVQAGGSLRLSCAASGRTFGLYDMGWYRQAPGKERELVAGITRRGGRTYYADSVKGRFTISRDNAKNTVYLQMNSLKPEDTAVYYCAVVTRYRYDYWGQGTQVTVSS | high polyreactivity
QVQLVESGGGLVQAGGSLRLSCAASGSTFFSYAMGWYRQAPGKERELVAVITGSDGRTFYADSVKGRFTISRDNAKNTVYLQMNSLKPEDTAVYYCAADAVFRATRYDRSTSEDDYWGQGTQVTVSS | low polyreactivity
QVQLVESGGGLVQAGGSLRLSCAASGIIFLENAMGWFRQAPGKESELVAGINGGGRTDYADSVKGRFTISRDNAKHTVYLQMNSLKPEDTAVYYCAAESSWYSPDVNYCGQGTQVTVSS | low polyreactivity
QVQLVESGGGLVQAGGSLRLSCAASGRIFPGNAMGWYRQAPGKEREFVAAINTRGGITYYADSVKGRFTISRDNAKNTVYLQMNSLKPEDTAVYYCARTYYPVDGEYDYWGQGTQVTVSS | low polyreactivity
QVQLVESGGGLVQAGGTLRLSCAASGSTFNEYAMGWYRQAPGKERELVAAIDERGGNTYYADSVKGRFTISRDNAKNTVYLQMNSLKPEDTAVYYCAADAYPYYQSYYPFEYWGQGTQVTVSS | low polyreactivity
QVQLVESGGGLVQAGGILRLSCAASGSIFPYYAMGWYRQAPGKERELVATITSRGGSTYYADSVKGRFTISRDNAKNTVYLQMNSLKPEDTAVYYCNTLQPYLYDYWGQGTQVTVSS | high polyreactivity
QVQLVESGGGLVQAGGSLRLSCAASGFIFNLYAMGWYRQAPGKERELVAVITGSGVRTYYADSVKGRFTISRDNAKNTVYLQMNSLKPEDTAVYYCAARTYGGYEYWGQGTQVTVSS | high polyreactivity
QVQLVESGGGLVQAGGSLRLSCAASGSTFQQYGMGWYRQAPGKERELVAAITFSDGNTYYADSVKGRFTISRDNAKNTVYLQMNSLKREDTAVYYCNAGYSYGVSYAEGGYWGQGTQVTVSS | low polyreactivity
QVQLVESGGGLVQAGGSLRLSCAASGSTFLLNAMGWYRQAPGTERELVAAITSSGGTNYADSVKGRFTISRDNAKNTVYLQMNSLKPEDTAVYYCAKDQERVTKGRFYLLEYYWGQGTQVTVSS | low polyreactivity
QVQLVESRGGLVQAGGSLRLSCASSGSTFVPNAMGWYRQAPGNERELDAAITFSGGTTYYADSVKGRFTISRDNAKNTVYFQMNSLKPEDTAVYDCAADYFSNLWWSGHAWRYYYWGQGTQVTVSS | low polyreactivity
QVQLVESGGGLLQAGGSLRLSSAASGFIFTKYNMGWYRQAPGKERELVDAIDTGGNTYADSVKGRFTISRDNAKNTVYLQMNSLKPEDTAVYYCSVDGGEFSSYGYWGQGTQVTVSS | low polyreactivity
